Here are results for 2 substances from patent publication US20040152634A1, “Chemokine antagonists and uses thereof” (priority 2002, published 2004).

Read-outs that look alike come from different tables or passages of the source.

Experiment [1] deals with T1, extracellular domain of the prolactin receptor (hPRLbp) (Homo sapiens, UniProt P16471).
T1 construct: with the extracellular domain of the prolactin receptor (hPRLbp)
T1 sequence (P16471 25-234 limits assumed): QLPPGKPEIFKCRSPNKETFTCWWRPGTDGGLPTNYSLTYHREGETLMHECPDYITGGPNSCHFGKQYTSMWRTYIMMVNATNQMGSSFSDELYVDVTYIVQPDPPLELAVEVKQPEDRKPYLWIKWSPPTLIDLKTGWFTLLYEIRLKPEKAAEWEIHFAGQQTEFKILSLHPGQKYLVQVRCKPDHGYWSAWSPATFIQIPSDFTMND
To be noted: cited from earlier work; for Kd: read-out: Kd, binding to hPRLbp.

The target of experiment [2] is IL-8 (CXCL8, interleukin 8) (UniProt P10145). The experiment in a line: inhibition of 125I-IL-8 binding to neutrophil membranes, (II).
Chain of IL-8 (CXCL8, interleukin 8) (P10145 28-99 limits assumed): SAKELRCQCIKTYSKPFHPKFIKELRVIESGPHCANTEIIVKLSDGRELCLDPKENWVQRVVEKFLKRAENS
The target is the same in experiment [3]. Description: inhibition of 125I-IL-8 binding to neutrophil membranes, in the presence of 100 uM ZnCl2.
Experiment [4] shares this target. Description: inhibition of 125I-IL-8 binding to neutrophil membranes; with 100 uM ZnCl2 against without Zn(II).

By Kd is commonly meant the free concentration of one partner at which half of the binding sites on the other are occupied at equilibrium, for simple one-to-one binding. Take “hGH: human growth hormone, binds the extracellular domain of the prolactin receptor (hPRLbp)”: the results for the dissociation constant (Kd) in experiment [1] (in the absence of Zn(II)) and in experiment [1] (in the presence of Zn(II)) were 270 nM and 0.033 nM, respectively. The “increase of binding affinity with Zn(II)” value in experiment [1] (presence vs absence of Zn(II)) is reported as “about 8,000 fold”.

Broadly, the Ki is a dissociation constant, usually derived from enzyme kinetics or from competition with a known ligand. Consider “synthetic N-terminal peptide CXCR1 (21-residues in length in which Met 12 was replaced by a His to create a Zn(II) binding site)”, for which the Ki amounted to 141000 nM in experiment [2] and 1120 nM in experiment [3]. The fold better inhibition with Zn(II) than in the absence of Zn(II) in experiment [4] was 125 fold.
